Measured values from patent publication US20220332789A1 (COMBIKINE BIOTECHNOLOGY, published 2022).
One block for each binder: values may come before it.

Columns and labels:
[1] = target: IgE (NIP IgE, AbD Serotec) (Homo sapiens (Human)), P01854; experiment: cell-based or functional assay
[2] = target: T1, IgE-Fc (UniProt P01854-1 104-428, limits assumed); experiment: flow cytometry competition: 1 nM IgE-Fc-A488 binding to FcεRI on RBL SX-38 cells
T1 construct: domain: IgE-Fc; In SPR it was captured on the chip by the α-Cε4 Fab; also called α-Cε4 Fab captured IgE-Fc; IgE-Fc-A488
T1 sequence (P01854 other isoform, or with tags, fused parts or gaps limits assumed): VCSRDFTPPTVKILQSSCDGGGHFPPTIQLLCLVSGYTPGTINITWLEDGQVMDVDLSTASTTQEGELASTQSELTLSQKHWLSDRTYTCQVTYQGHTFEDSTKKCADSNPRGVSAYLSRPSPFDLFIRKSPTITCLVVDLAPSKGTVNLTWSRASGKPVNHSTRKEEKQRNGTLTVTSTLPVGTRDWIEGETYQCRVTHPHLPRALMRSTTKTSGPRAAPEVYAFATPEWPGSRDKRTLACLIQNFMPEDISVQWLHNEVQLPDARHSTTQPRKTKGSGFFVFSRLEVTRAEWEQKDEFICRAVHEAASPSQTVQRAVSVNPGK

[3] = target: T1, IgE-Fc; experiment: SPR (Biacore), steady state analysis, one-to-one binding model, derCD23 0-4 µM over α-Cε4 Fab captured IgE-Fc
Procedure: (§1) An α-Cε4 Fab CM5 sensor surface was prepared using amine-coupling and a mock amine-coupled surface was used as a reference-subtraction control. […] Injections were performed at a flow rate of 25 μl·min⁻¹ in a running buffer of 10 mM HEPES, pH 7.4, 150 mM NaCl, 4 mM CaCl₂, and 0.005% (v/v) surfactant P-20 (GE Healthcare).

[4] = target: T1, IgE-Fc; experiment: SPR (Biacore T200), monophasic kinetic fitting, derCD23 4000 nM to 31 nM over α-Cε4 Fab captured IgE-Fc, pH 7.4, 4 mM CaCl2
Procedure: as §1

Chain of IgE (NIP IgE, AbD Serotec) (Homo sapiens (Human)), P01854 (P01854 other isoform, or with tags, fused parts or gaps limits assumed): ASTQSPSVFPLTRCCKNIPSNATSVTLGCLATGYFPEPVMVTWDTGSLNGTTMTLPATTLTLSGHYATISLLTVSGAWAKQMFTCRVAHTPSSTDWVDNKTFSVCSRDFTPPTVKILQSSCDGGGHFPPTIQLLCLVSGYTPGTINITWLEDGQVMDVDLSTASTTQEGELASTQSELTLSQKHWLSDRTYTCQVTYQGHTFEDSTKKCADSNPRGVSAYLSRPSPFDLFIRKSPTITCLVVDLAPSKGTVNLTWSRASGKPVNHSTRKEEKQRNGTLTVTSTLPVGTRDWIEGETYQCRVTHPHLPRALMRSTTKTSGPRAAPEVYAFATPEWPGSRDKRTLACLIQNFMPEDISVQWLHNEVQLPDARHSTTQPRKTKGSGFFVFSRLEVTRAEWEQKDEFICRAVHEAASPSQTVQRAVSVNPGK

B1: hCD23-G4S3-mIgG2a Fc (Fc fusion)
chain: EASDLLERLREEVTKLRMELQVSSGFVCNTCPEKWINFQRKCYYFGKGTKQWVHARYACDDMEGQLVSIHSPEEQDFLTKHASHTGSWIGLRNLDLKGEFIWVDGSHVDYSNWAPGEPTSRSQGEDCVMMRGSGRWNDAFCDRKLGAWVCDRLATCTPPASEGSAESMGPDSRPDPDGRLPTPSAPLHSGGGGSGGGGSGGGGSASISAMVRSPRGPTIKPCPPCKCPAPNLEGGPSVFIFPPKIKDVLMISLSPIVTCVVVDVSEDDPDVQISWFVNNVEVHTAQTQTHREDYNSTLRVVSALPIQHQDWMSGKAFACAVNNKDLPAPIERTISKPKGSVRAPQVYVLPPPEEEMTKKQVTLTCMVTDFMPEDIYVEWTNNGKTELNYKNTEPVLDSDGSYFMYSKLRVEKKNWVERNSYSCSVVHEGLHNHHTTKSFSRTPGK
modifications: here or on the partner: In the flow-cytometry assays the IgE carried AlexaFluor-488 dye at unspecified positions. The letters do not show this.
Extracellular supernatant (IgE remaining prior to buffer change), 1 nM IgE with 0.01 nM biologic, percentage of IgE [1]: 7% | Extracellular supernatant (IgE remaining prior to buffer change), 1 nM IgE with 0.05 nM biologic, percentage of IgE [1]: 4.5% | Extracellular supernatant (IgE remaining prior to buffer change), 1 nM IgE with 0.5 nM biologic, percentage of IgE [1]: 1% | Extracellular supernatant (IgE remaining), 1 nM IgE with 0.01 nM biologic, percentage of IgE [1]: 8% | Extracellular supernatant (IgE remaining), 1 nM IgE with 0.05 nM biologic, percentage of IgE [1]: 5% | Extracellular supernatant (IgE remaining), 1 nM IgE with 0.5 nM biologic, percentage of IgE [1]: 1% | IC50 of inhibition of IgE mediated degranulation [1]: 10 to 30 nM | IgE Intracellular retention, 1 nM IgE with 0.01 nM biologic, percentage of IgE [1]: 92% | IgE Intracellular retention, 1 nM IgE with 0.05 nM biologic, percentage of IgE [1]: 94% | IgE Intracellular retention, 1 nM IgE with 0.5 nM biologic, percentage of IgE [1]: 98% | IgE Intracellular retention, 1 nM IgE with 1 nM biologic, percentage of IgE [1]: 95% | IgE Intracellular retention, 1 nM IgE with 5 nM biologic, percentage of IgE [1]: 93% | IgE Intracellular retention, 1 nM IgE with 50 nM biologic, percentage of IgE [1]: 90% | IgE Intracellular retention, 1 nM IgE with 500 nM biologic, percentage of IgE [1]: 79% | IgE Intracellular retention, 1 nM IgE with 1000 nM biologic, percentage of IgE [1]: 65% | IgE Intracellular retention, 1 nM IgE with 2000 nM biologic, percentage of IgE [1]: 52% | IgE Uptake, 1 nM IgE with 0.01 nM biologic, percentage of IgE [1]: 92% | IgE Uptake, 1 nM IgE with 0.05 nM biologic, percentage of IgE [1]: 95% | IgE Uptake, 1 nM IgE with 0.5 nM biologic, percentage of IgE [1]: 99% | IgE Uptake, 1 nM IgE with 1 nM biologic, percentage of IgE [1]: 100% | IgE Uptake, 1 nM IgE with 5 nM biologic, percentage of IgE [1]: 100% | IgE Uptake, 1 nM IgE with 50 nM biologic, percentage of IgE [1]: 100% | IgE Uptake, 1 nM IgE with 500 nM biologic, percentage of IgE [1]: 100% | IgE Uptake, 1 nM IgE with 1000 nM biologic, percentage of IgE [1]: 100% | IgE Uptake, 1 nM IgE with 2000 nM biologic, percentage of IgE [1]: 100% | efficacy of inhibition of IgE mediated degranulation of basophils [1]: 90%

B4: anti-IgE^0 (Fc fusion)
chain: EASDLLERLREEVTKLRMELQVSSGFVCNTCPEKWINFQRKCYYFGKGTKQWVHARYACDDMEGQLVSIHSPEEQDFLTKHASHTGSWIGLRNLDLKGEFIWVDGSHVDYSNWAPGEPTSRSQGEDCVMMRGSGRWNDAFCDRKLGAWVCDRLATCTPPASEGSAESMGPDSRPDPDGRLPTPSAPLHSASISAMVRSPRGPTIKPCPPCKCPAPNLEGGPSVFIFPPKIKDVLMISLSPIVTCVVVDVSEDDPDVQISWFVNNVEVHTAQTQTHREDYNSTLRVVSALPIQHQDWMSGKAFACAVNNKDLPAPIERTISKPKGSVRAPQVYVLPPPEEEMTKKQVTLTCMVTDFMPEDIYVEWTNNGKTELNYKNTEPVLDSDGSYFMYSKLRVEKKNWVERNSYSCSVVHEGLHNHHTTKSFSRTPGK
modifications: here or on the partner: In the flow-cytometry assays the IgE carried AlexaFluor-488 dye at unspecified positions. The letters do not show this.
IC50 of inhibition of IgE mediated degranulation [1]: > 300 nM | maximal efficacy of inhibition of IgE mediated degranulation of basophils [1]: 50%

B7: anti-IgE^4 (Fc fusion)
chain: EASDLLERLREEVTKLRMELQVSSGFVCNTCPEKWINFQRKCYYFGKGTKQWVHARYACDDMEGQLVSIHSPEEQDFLTKHASHTGSWIGLRNLDLKGEFIWVDGSHVDYSNWAPGEPTSRSQGEDCVMMRGSGRWNDAFCDRKLGAWVCDRLATCTPPASEGSAESMGPDSRPDPDGRLPTPSAPLHSGGGGSGGGGSGGGGSGGGGSASISAMVRSPRGPTIKPCPPCKCPAPNLEGGPSVFIFPPKIKDVLMISLSPIVTCVVVDVSEDDPDVQISWFVNNVEVHTAQTQTHREDYNSTLRVVSALPIQHQDWMSGKAFACAVNNKDLPAPIERTISKPKGSVRAPQVYVLPPPEEEMTKKQVTLTCMVTDFMPEDIYVEWTNNGKTELNYKNTEPVLDSDGSYFMYSKLRVEKKNWVERNSYSCSVVHEGLHNHHTTKSFSRTPGK
notes: also called biologic anti-IgE^4
IC50 (read off the curve) [2]: ~7 nM

Results, then the binder that gave them:

IC50 (read off the curve) [2]: ~10 nM
B2: hCD23-G4S3-mIgG2a Fc (Fc fusion)
chain: EASDLLERLREEVTKLRMELQVSSGFVCNTCPEKWINFQRKCYYFGKGTKQWVHARYACDDMEGQLVSIHSPEEQDFLTKHASHTGSWIGLRNLDLKGEFIWVDGSHVDYSNWAPGEPTSRSQGEDCVMMRGSGRWNDAFCDRKLGAWVCDRLATCTPPASEGSAESMGPDSRPDPDGRLPTPSAPLHSGGGGSGGGGSGGGGSASISAMVRSPRGPTIKPCPPCKCPAPNLEGGPSVFIFPPKIKDVLMISLSPIVTCVVVDVSEDDPDVQISWFVNNVEVHTAQTQTHREDYNSTLRVVSALPIQHQDWMSGKAFACAVNNKDLPAPIERTISKPKGSVRAPQVYVLPPPEEEMTKKQVTLTCMVTDFMPEDIYVEWTNNGKTELNYKNTEPVLDSDGSYFMYSKLRVEKKNWVERNSYSCSVVHEGLHNHHTTKSFSRTPGK
notes: It has two CD23 monomers, paired through the IgG Fc; also called anti-IgE^3; IgE^3

Kd [3]: 1820 nM | Kd [4]: 1800 nM
B3: derCD23 (receptor)
chain: SGFVCNTCPEKWINFQRKCYYFGKGTKQWVHARYACDDMEGQLVSIHSPEEQDFLTKHASHTGSWIGLRNLDLKGEFIWVDGSHVDYSNWAPGEPTSRSQGEDCVMMRGSGRWNDAFCDRKLGAWVCDRLATCTPPASEGSAE
notes: also called derCD23 monomer; CD23 monomer

IC50 (read off the curve) [2]: ~30 nM
B5: anti-IgE^0 (Fc fusion)
chain: EASDLLERLREEVTKLRMELQVSSGFVCNTCPEKWINFQRKCYYFGKGTKQWVHARYACDDMEGQLVSIHSPEEQDFLTKHASHTGSWIGLRNLDLKGEFIWVDGSHVDYSNWAPGEPTSRSQGEDCVMMRGSGRWNDAFCDRKLGAWVCDRLATCTPPASEGSAESMGPDSRPDPDGRLPTPSAPLHSASISAMVRSPRGPTIKPCPPCKCPAPNLEGGPSVFIFPPKIKDVLMISLSPIVTCVVVDVSEDDPDVQISWFVNNVEVHTAQTQTHREDYNSTLRVVSALPIQHQDWMSGKAFACAVNNKDLPAPIERTISKPKGSVRAPQVYVLPPPEEEMTKKQVTLTCMVTDFMPEDIYVEWTNNGKTELNYKNTEPVLDSDGSYFMYSKLRVEKKNWVERNSYSCSVVHEGLHNHHTTKSFSRTPGK
notes: also called biologic anti-IgE^0

IC50 of inhibition of IgE mediated degranulation [1]: 10 to 30 nM | efficacy of inhibition of IgE mediated degranulation of basophils [1]: 100%
B6: anti-IgE^4 (Fc fusion)
chain: EASDLLERLREEVTKLRMELQVSSGFVCNTCPEKWINFQRKCYYFGKGTKQWVHARYACDDMEGQLVSIHSPEEQDFLTKHASHTGSWIGLRNLDLKGEFIWVDGSHVDYSNWAPGEPTSRSQGEDCVMMRGSGRWNDAFCDRKLGAWVCDRLATCTPPASEGSAESMGPDSRPDPDGRLPTPSAPLHSGGGGSGGGGSGGGGSGGGGSASISAMVRSPRGPTIKPCPPCKCPAPNLEGGPSVFIFPPKIKDVLMISLSPIVTCVVVDVSEDDPDVQISWFVNNVEVHTAQTQTHREDYNSTLRVVSALPIQHQDWMSGKAFACAVNNKDLPAPIERTISKPKGSVRAPQVYVLPPPEEEMTKKQVTLTCMVTDFMPEDIYVEWTNNGKTELNYKNTEPVLDSDGSYFMYSKLRVEKKNWVERNSYSCSVVHEGLHNHHTTKSFSRTPGK
modifications: here or on the partner: In the flow-cytometry assays the IgE carried AlexaFluor-488 dye at unspecified positions. The letters do not show this.
